# Measured values taken from patent US12226454B2, “Pharmaceutical compositions and use thereof for relieving anticancer drug resistance and enhancing sensitivity of anticancer drug” (Rise Biopharmaceuticals Inc., priority 2015, dated 2025).
# Experiments:
# [1] = tested on: IL-8, CXCR1 and CXCR2 mRNA in PC9GR; test: Real-time PCR gene expression in PC9GR; type: cell-based, human; settings: 5 μM Gefitinib, 24 hrs
# Excerpt: (§1) 18 s was used as an internal loading control.
# […]. […] That is to say, RISE P-8 can compete with IL-8 and attenuate its feedback to regulate gene expression of IL-8, CXCR1 and CXCR2 decreased.
# [2] = tested on: IL-8, CXCR1 and CXCR2 mRNA in HCC827GR; test: Real-time PCR gene expression in HCC827GR; type: cell-based, human
# Excerpt: as §1
# That is to say, RISE P-8 can compete with IL-8 and attenuate its feedback to regulate gene expression of IL-8, CXCR1 and CXCR2 decreased.
# human neutrophil = test: Modified Boyden chamber neutrophil chemotaxis to CXCL8; type: cell-based; settings: CXCL8 combined with RISE P-8 in lower compartment
# Method: Please refer to FIG. 5, neutrophil chemotaxis was assessed using modified Boyden chamber microchemotaxis assays. The CXCL8 alone or combined with RISE P-8, were placed in the lower compartment of the Boyden chamber wells and purified neutrophil in the upper compartment. The migrated neutrophil were lysed and detected. The percentages of neutrophil migration were assessed and presented with Chemotaxis Index (CI) value. That is to say, CI=(intensityRISE P-8−intensityHBSS)/(intensityCXCL8−intensityHBSS)×100%.
# IL-8 in PC9 = test: IL-8 protein expression in 3D (suspended) culture; type: cell-based, human; settings: PC9, RISE P-8 200 ng/ml, 24 hrs, 2D vs suspended
# Method: (§2) Cells underwent serum-free 16-18 hr and suspended into 10^6 cells/mL in growth medium. 2×10^6 cells/well were seeded in coating/non-coating 6 well plates and treated with/without RISE P-8 (200 ng/ml) for 24 hrs.
# IL-8 in PC9GR = test: IL-8 protein expression in 3D (suspended) culture; type: cell-based, human; settings: RISE P-8 200 ng/ml, 24 hrs, 2D vs suspended
# Method: as §2
# [3] = tested on: LL/2 cells (Lewis lung carcinoma); test: Matrigel transwell invasion assay; type: cell-based, mouse; settings: RISE P-8 200 ng/ml, 24 hr
# Method: Lewis lung carcinoma (LL/2) is a cell line established from the lung of a C57BL mouse bearing a tumor resulting from an implantation of primary Lewis lung carcinoma.
# Please refer to FIG. 13A and FIG. 13B, the present invention also represented invasion of LL/2 cells (Louis lung carcinoma) treated with CXCL8, MIP-2 or RISE P-8. The character of LL/2 cancer cell is very prone to invasion into lung and grows rapidly. The LL/2 cells were seeded onto Matrigel-coated polycarbonate filters to analyze their invasive potentials. The cells were then incubated for 24 hr in chambers and were analyzed by staining PI and counted under a microscope. Representative fields of invasive cells on the transwell membrane (at 100× magnification) and the invasion rate were shown. The LL/2 cells treated with CXCL8 (100 ng/ml), RISE P-8 (200 ng/ml), or MIP-2 (50 ng/ml) respectively. […] MIP-2 is the CXCL8 homologues in murine.
# HCC827GR [4] = test: Colony formation assay; type: cell-based, human; settings: RISE P-8 200 ng/mL with Gefitinib 5 μM, vs control group and IL-8 group
# Method: (§3) The colony formation assay was also performed to evaluate cell proliferation.
# PC9GR [5] = test: Colony formation assay; type: cell-based, human; settings: RISE P-8 200 ng/mL with Gefitinib 5 μM, vs control group and IL-8 group
# Method: as §3
# HCC827GR [6] = test: Matrigel transwell invasion assay; type: cell-based, human
# Method: (§4) The invasion ability of cell was performed by using 8 μm pore size transwell (Corning FluoroBlok™). The transwell insert was coated with 60 μl matrigel (300 μg/ml in serum-free medium, BD Bioscience) overnight at 37° C. in 5% CO2 atmosphere. 2.5×10^4 cells in 0.2 mL of serum-free growth medium were seeded into the upper chamber coated with matrigel and then treated with drugs IL-8 (100 ng/ml) with/without RISE P-8 (200 ng/ml). After incubation for 24 hrs at 37° C. in 5% CO2, membrane of upper chamber was fixed with methanol and stained with propidium iodide (PI). The invasive cells in the bottom of membrane were imaged and counted by using an inverted fluorescence microscope (Observer.Z1, Zeiss) in five random fields of each specimen (magnification, ×100).
# PC9GR [7] = test: Matrigel transwell invasion assay; type: cell-based, human
# Method: as §4
# [8] = IL-8 100 ng/mL + RISE P-8 200 ng/mL vs IL-8 group
# [9] = RISE P-8 200 ng/mL, Gefitinib 5 μM, 24 hrs, vs control group
molecule,measurement,setting,value
COc1cc2ncnc(Nc3ccc(F)c(Cl)c3)c2cc1OCCCN1CCOCC1 [Gefitinib],"IL-8, CXCR1 and CXCR2 mRNA expression",[1],significantly enhanced
same,"IL-8, CXCR1 and CXCR2 mRNA expression","[2]; 5 μM Gefitinib, 24 hrs",significantly enhanced
same,CXCR1 and CXCR2 mRNA expression,"[2]; gefitinib 5 μM, 24 hours",increased
same,IL-8 mRNA expression,"[2]; gefitinib 5 μM, 24 hours",increased
"RISE P-8: chemokine analogue peptide, SEQ ID NO: 1; analogous protein of CXCL8 (IL-8), antagonist of CXCR1 and CXCR2 (protein, RISE P-8, analogous protein of CXCL8 (IL-8), antagonist of CXCR1 and CXCR2) GSKELRCQCIRSYSKPFHPKFIKELRVIPASQFCANTEIIVKLSDGRELCLDPKENWVQRVVEKFLKRAENS",neutrophil chemotaxis (Chemotaxis Index),human neutrophil,effectively antagonize neutrophil response to CXCL8
same,IL-8 protein expression (autocrine secretion),IL-8 in PC9,significantly attenuate IL-8 autocrine only in suspended culture
same,IL-8 protein expression (autocrine secretion),IL-8 in PC9GR,significantly attenuate IL-8 autocrine only in suspended culture
same,"invasion rate, CXCL8 stimulated","[3]; LL/2, CXCL8 100 ng/ml",significantly suppressed CXCL8 stimulated cell invasion
same,"number of invasive cells, MIP-2 induced","[3]; LL/2, MIP-2 50 ng/ml",significantly decreased the number of invasive cells
same,colony formation rate,HCC827GR [4],slow down significantly
same,colony formation rate,PC9GR [5],slow down significantly
same,"invasion rate, IL-8 stimulated",HCC827GR [6]; [8],prevent significantly invasion rate
same,invasion rate,HCC827GR [6]; [9],decreases invasion rate
same,"invasion rate, IL-8 stimulated",PC9GR [7]; [8],prevent significantly invasion rate
same,invasion rate,PC9GR [7]; [9],decreases invasion rate
